The target of assay [1] is T1, Human PD-1 ECD-His (human, UniProt Q15116 25-167).
T1 construct: Soluble analyte in SPR; the entry includes the His tag
As to the kind of experiment: SPR (Biacore T200), antibody captured on PrismA chip, ECD as analyte, 37° C. (In general: SPR reads the build-up and loss of mass on a sensor chip optically.)

Assay [2] has as its target T2, Cynomolgus PD-1-ECD (cynomolgus, UniProt B0LAJ3 25-170).
T2 construct: commercial protein; also called cynomolgus PD-1-ECD (Sino Biologicals, Cat #90311-C08H); not shown: C-terminal polyhistidine tag of the vendor product (Sino Biological 90311-C08H)
The assay is described as above.

For assay [3], the target named is T1, Human PD-1 ECD-His. Kind of assay: SPR (Biacore T200), antibody captured on PrismA chip, ECD as analyte, 25° C.; 25° C. As for the experimental part: (§1) A Biacore® T200 (Cytiva, Marlborough, MA) was used to measure the binding kinetics and affinities of the LAG-3 antibody to the LAG-3 soluble extracellular domain (ECD) and the bispecific antibody to soluble LAG-3-ECD and PD-1-ECD (human: Sino Biologicals, Cat #10377-H08H; cynomolgus: Sino Biologicals, Cat #90311-C08H) by surface plasmon resonance. Samples were diluted in HBS-EP+ (10 mM Hepes, 150 mM NaCl, 3 mM EDTA, 0.05% Tween-20, pH 7.6) (Teknova Cat #H8022) with 5 g/L of BSA (Jackson ImmunoResearch Cat #001-000-161) running buffer. PrismA Series S Sensor chip (Cat #29650263) is purchased from Cytiva.
(§2) Binding was evaluated using multi-cycle kinetics by an antibody capture method. […] Each cycle consisted of the following steps: injection of bispecific antibody at 1 μg/mL in HBS-EP+ targeting Rmax values of 125 RU (LAG-3 arm), 294 RU (PD-1 arm) and 63 RU (LAG-3 antibody) on flow cell, injection of analyte in HBS-EP+(concentration range of 62.5 nM to 0.25 nM by two-fold serial dilution for both human PD-1-ECD-His (SEQ ID NO: 40) and human LAG-3-His (SEQ ID NO: 42) followed by 900-second dissociation phase, and regeneration using 10 μL of 10 mM glycine hydrochloride, pH 1.5 over a 60-second contact time utilizing a 10 μL/min flow rate. All analyte concentrations were determined utilizing monomeric molecular weight (MW) values. […]

In assay [4] the target is T1, Human PD-1 ECD-His. As to the kind of experiment: SPR (Biacore T200), antibody captured on PrismA chip, ECD as analyte; temperature unclear: the 37° C. label is printed only at r14, by the order of Table 3a probably 37° C.; 37° C. (label printed late, at r14). The protocol: as §1, §2
Assay [5] deals with T1, Human PD-1 ECD-His. As to the kind of experiment: SPR (Biacore T200), antibody captured on PrismA chip, ECD as analyte; temperature unclear: the 37° C. label is printed only at r14, by the order of Table 3a probably 37° C. The protocol: as §1
(§3) Binding was evaluated using multi-cycle kinetics by an antibody capture method. Each cycle was performed at either 37° C. or 25° C. at a flow rate of 10 μL/min for antibody capture to the PrismA chip and 100 μL/min for analyte association (with 120 sec contact time) and dissociation (900 sec). Each cycle consisted of the following steps: injection of bispecific antibody at 1 μg/mL in HBS-EP+ targeting Rmax values of 125 RU (LAG-3 arm), 294 RU (PD-1 arm) and 63 RU (LAG-3 antibody) on flow cell, injection of analyte in HBS-EP+(concentration range of 62.5 nM to 0.25 nM by two-fold serial dilution for both human PD-1-ECD-His (SEQ ID NO: 40) and human LAG-3-His (SEQ ID NO: 42) followed by 900-second dissociation phase, and regeneration using 10 μL of 10 mM glycine hydrochloride, pH 1.5 over a 60-second contact time utilizing a 10 μL/min flow rate. All analyte concentrations were determined utilizing monomeric molecular weight (MW) values. Association rates (kₒₙ) and dissociation rates (koff) for LAG-3-ECD and PD-1-ECD were evaluated using double referencing by flow-cell one reference subtraction in addition to 0 nM blank subtraction and fit to “1:1 (Langmuir) binding” model in the BIAevaluation software version 4.1. The dissociation constant (KD) was calculated from the binding kinetics according to the relationship KD=Koff/Kₒₙ. Stoichiometry=[RUₘₐₓ/RUcaptured]/[MWanalyte/MWantibody] where MWAntibodyA is 150 kDa. Values are reported as mean±standard deviation.

Assay [6] deals with T2, Cynomolgus PD-1-ECD. The assay is described as above. The protocol: as §1, §3

Substitutions are numbered along the chain they refer to.

T1 sequence (Q15116 other isoform, or with tags, fused parts or gaps): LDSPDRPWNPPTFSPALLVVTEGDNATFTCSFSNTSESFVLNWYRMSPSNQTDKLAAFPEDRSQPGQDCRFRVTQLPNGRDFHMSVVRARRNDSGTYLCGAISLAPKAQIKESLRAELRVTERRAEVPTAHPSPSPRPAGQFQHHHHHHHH
T2 sequence (B0LAJ3 entry or part of it limits assumed): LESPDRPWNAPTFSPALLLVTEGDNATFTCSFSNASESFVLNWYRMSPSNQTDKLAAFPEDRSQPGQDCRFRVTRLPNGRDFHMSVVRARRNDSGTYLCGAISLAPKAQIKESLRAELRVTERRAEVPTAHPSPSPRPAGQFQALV

B1: Antibody A (bispecific antibody, human IgG1, kappa, lambda)
heavy 1: not shown
light 1: DIVMTQTPLSLPVTPGEPASISCRSSQSLLDSAEGSTYLDWFLRKPGDSPQLLIYTLSYRASGVPDRFSGSGSGTDFTLKISRVEAEDVGVYYCMQRVEFPYTFGQGTKVEIKRTVAAPSVFIFPPSKEQLKSGTASVVCLLNNFYPREAKVQWKVDNALQSGNSQESVTEQDSKDSTYSLSSTLTLSKADYEKHKVYACEVTHQGLSSPVTKSFNRGEC
heavy 2: QVQLVQSGAEVKKPGASVKVSCKVSGYSLSKYDMSWVRKAPGKGLEWMGIIYTSGYTDYAQEFQGRVTMTEDTSTDTAYMELSSLRSEDTAVYYCATGNPYYTNGFNSWGQGTLVTVSSASTKGPSVFPLAPSSKSTSGGTAALGCLVKDYFPEPVTVSWNSGALTSGVATGPAVLQSSGLYSLSSVVTVPSSSLGTQTYICNVNHKPSNTKVDKRVEPKSCDKTHTCPPCPAPELLGGPSVFLFPPKPKDTLMISRTPEVTCVVVDVSHEDPEVKFNWYVDGVEVHNAKTKPREEQYNSTYRVVSVLTVLHQDWLNGKEYKCKVSNKALPAPIEKTISKAKGQPREPQVYTLPPSREEMTDNQVSLTCLVKGFYPSDIAVEWESNGQPENNYKTTPPVLMSDGSFFLASKLTVDKSRWQQGNVFSCSVMHEALHNHYTQKSLSLSPGK
light 2: RIQMTQSPSSLSASVGDRVTITCQASQSPNNLLAWYQDKPGKAPKLLIYGASDLPSGVPSRFSGSGSGTDFTLTISSLQPEDFATYYCQNNYYVGPVSYAFGGGTKVEIKGQPKAAPSVTLFPPSSEELQANKATLVCYISDFYPGAVTVAWKADSSPVKAGVETTTPSKQSNNKYAAWSYLSLTPEQWKSHRSYSCQVTHEGSTVEKTVAPTEC
notes: IgG-like bispecific with one LAG-3 arm and one PD-1 arm; also called human LAG-3/human PD-1 dual agonist bispecific antibody
Consider B1, for which, in assay [1], binding was put at a Kd of 0.66 nM; the koff (in general, the rate constant with which the complex falls apart) amounted to 0.0017 s⁻¹; the kon (commonly the rate constant with which the complex forms) turned out to be 2.5e+06 M⁻¹ s⁻¹. In assay [2], the equilibrium dissociation constant (Kd) – broadly, the equilibrium constant for the complex coming apart – was found to be 3.5 nM; the off-rate (koff) amounted to 0.0087 s⁻¹; the kon was 2.5e+06 M⁻¹ s⁻¹. Moreover, the association rate constant (kon) in assay [3] is 750000 M⁻¹ s⁻¹.

B2: Antibody B (bispecific antibody, human IgG1, kappa, lambda)
heavy 1: not shown
light 1: B1 light 1
heavy 2: B1 heavy 2 with K324A
light 2: B1 light 2
notes: also called human LAG-3/human PD-1 dual agonist bispecific antibody
Turning to B2, in assay [4], the association rate constant (kon) was found to be 2.4e+06 M⁻¹ s⁻¹. Moreover, in assay [5], the Kd was 0.65 nM and the koff came to 0.0015 s⁻¹. For the same molecule, in assay [6], the Kd was 3.1 nM, the koff was determined as 0.0088 s⁻¹ and the on-rate constant (kon) turned out to be 2.8e+06 M⁻¹ s⁻¹.

The values are drawn from patent publication US20240166745A1 (Eli Lilly, published 2024).
